These results are taken from article PMC11831497.

What all share (details): glycan lost; control: CTSD WT
A short description of one data set: western blot. On the technique in general: In western blotting, separated proteins are transferred to a membrane and probed.
Data set [1] can be described thus: CTSD secretion from CRC cells.
Data set [2] in a line: cycloheximide chase, western blot.
A short description of data set [3]: western blot at equal CTSD expression, SW480.
A short description of data set [4]: fluorogenic Cathepsin D activity kit, cell lysate.
Data set [5] is described as follows: immunofluorescence co-localisation with EEA1, Rab7, LAMP1, SW480.

In the case of Cathepsin D (CTSD): N263Q, the “other: ferroptosis protein levels (SLC7A11, GPX4)” value in the data set “western blot” is recorded as “decreases”. Besides, in data set [1], the expression_or_secretion entry was “decreases”. Moreover, in data set [2], the degradation_or_half_life entry is given as “decreases”. In data set [3], the “other: cellular level of substrate ACADM” value is “increases”. The enzymatic_activity result in data set [4] was “decreases”. The localisation_or_trafficking result in data set [5] was “abolishes”.

For Cathepsin D (CTSD): N263Q/N134Q, in data set [1], the expression_or_secretion entry is on record as “increases”. For the same substance, in data set [4], the enzymatic_activity entry is “decreases”. In addition, the localisation_or_trafficking entry in data set [5] is “abolishes”.
